Numbered stars: 1 amine (or outer) side, 2 acyl side, 3 side chain; on linkers, the order of the positions; unused ones are H or OH. Bridge positions count the residues as written; N and C are the ends. * marks the point of attachment. C20 diacid = O=C(O)CCCCCCCCCCCCCCCCCCC(=O)*; γGlu = O=C(O)[C@H](CCC(=O)[*:2])N[*:1]

B1: N^α1-[(4S)-4-carboxy-4-(19-carboxynonadecanoylamino)butanoyl]-[Glu14,Arg17,Pro21,Pro27,His34]-h-amylin (peptide)
peptide: {C20 diacid-γGlu}-KCNTATCATQRLAEFLRHSSPNFGAIPSSTNVGHNTY-NH2
modifications: disulfide 2-7
SMILES: CC[C@H](C)[C@H](NC(=O)[C@H](C)NC(=O)CNC(=O)[C@H](Cc1ccccc1)NC(=O)[C@H](CC(N)=O)NC(=O)[C@@H]1CCCN1C(=O)[C@H](CO)NC(=O)[C@H](CO)NC(=O)[C@H](Cc1c[nH]cn1)NC(=O)[C@H](CCCNC(=N)N)NC(=O)[C@H](CC(C)C)NC(=O)[C@H](Cc1ccccc1)NC(=O)[C@H](CCC(=O)O)NC(=O)[C@H](C)NC(=O)[C@H](CC(C)C)NC(=O)[C@H](CCCNC(=N)N)NC(=O)[C@H](CCC(N)=O)NC(=O)[C@@H](NC(=O)[C@H](C)NC(=O)[C@@H]1CSSC[C@H](NC(=O)[C@H](CCCCN)NC(=O)CC[C@H](NC(=O)CCCCCCCCCCCCCCCCCCC(=O)O)C(=O)O)C(=O)N[C@@H](CC(N)=O)C(=O)N[C@@H]([C@@H](C)O)C(=O)N[C@@H](C)C(=O)N[C@@H]([C@@H](C)O)C(=O)N1)[C@@H](C)O)C(=O)N1CCC[C@H]1C(=O)N[C@@H](CO)C(=O)N[C@@H](CO)C(=O)N[C@H](C(=O)N[C@@H](CC(N)=O)C(=O)N[C@H](C(=O)NCC(=O)N[C@@H](Cc1c[nH]cn1)C(=O)N[C@@H](CC(N)=O)C(=O)N[C@H](C(=O)N[C@@H](Cc1ccc(O)cc1)C(N)=O)[C@@H](C)O)C(C)C)[C@@H](C)O
notes: Derivative of human amylin; also called compound 17
B2: N^α1-[(4S)-4-carboxy-4-(19-carboxynonadecanoylamino)butanoyl]-[Glu14,Arg17,Pro21,Pro27,Pro29]-h-amylin (peptide)
peptide: {C20 diacid-γGlu}-KCNTATCATQRLAEFLRHSSPNFGAIPSPTNVGSNTY-NH2
modifications: disulfide 2-7
SMILES: CC[C@H](C)[C@H](NC(=O)[C@H](C)NC(=O)CNC(=O)[C@H](Cc1ccccc1)NC(=O)[C@H](CC(N)=O)NC(=O)[C@@H]1CCCN1C(=O)[C@H](CO)NC(=O)[C@H](CO)NC(=O)[C@H](Cc1c[nH]cn1)NC(=O)[C@H](CCCNC(=N)N)NC(=O)[C@H](CC(C)C)NC(=O)[C@H](Cc1ccccc1)NC(=O)[C@H](CCC(=O)O)NC(=O)[C@H](C)NC(=O)[C@H](CC(C)C)NC(=O)[C@H](CCCNC(=N)N)NC(=O)[C@H](CCC(N)=O)NC(=O)[C@@H](NC(=O)[C@H](C)NC(=O)[C@@H]1CSSC[C@H](NC(=O)[C@H](CCCCN)NC(=O)CC[C@H](NC(=O)CCCCCCCCCCCCCCCCCCC(=O)O)C(=O)O)C(=O)N[C@@H](CC(N)=O)C(=O)N[C@@H]([C@@H](C)O)C(=O)N[C@@H](C)C(=O)N[C@@H]([C@@H](C)O)C(=O)N1)[C@@H](C)O)C(=O)N1CCC[C@H]1C(=O)N[C@@H](CO)C(=O)N1CCC[C@H]1C(=O)N[C@H](C(=O)N[C@@H](CC(N)=O)C(=O)N[C@H](C(=O)NCC(=O)N[C@@H](CO)C(=O)N[C@@H](CC(N)=O)C(=O)N[C@H](C(=O)N[C@@H](Cc1ccc(O)cc1)C(N)=O)[C@@H](C)O)C(C)C)[C@@H](C)O
notes: Derivative of human amylin; also called compound 37
B3: N^α1-[(4S)-4-carboxy-4-(19-carboxynonadecanoylamino)butanoyl]-[Glu14,Arg17,Pro21,Pro27,Pro31]-h-amylin (peptide)
peptide: {C20 diacid-γGlu}-KCNTATCATQRLAEFLRHSSPNFGAIPSSTPVGSNTY-NH2
modifications: disulfide 2-7
SMILES: CC[C@H](C)[C@H](NC(=O)[C@H](C)NC(=O)CNC(=O)[C@H](Cc1ccccc1)NC(=O)[C@H](CC(N)=O)NC(=O)[C@@H]1CCCN1C(=O)[C@H](CO)NC(=O)[C@H](CO)NC(=O)[C@H](Cc1c[nH]cn1)NC(=O)[C@H](CCCNC(=N)N)NC(=O)[C@H](CC(C)C)NC(=O)[C@H](Cc1ccccc1)NC(=O)[C@H](CCC(=O)O)NC(=O)[C@H](C)NC(=O)[C@H](CC(C)C)NC(=O)[C@H](CCCNC(=N)N)NC(=O)[C@H](CCC(N)=O)NC(=O)[C@@H](NC(=O)[C@H](C)NC(=O)[C@@H]1CSSC[C@H](NC(=O)[C@H](CCCCN)NC(=O)CC[C@H](NC(=O)CCCCCCCCCCCCCCCCCCC(=O)O)C(=O)O)C(=O)N[C@@H](CC(N)=O)C(=O)N[C@@H]([C@@H](C)O)C(=O)N[C@@H](C)C(=O)N[C@@H]([C@@H](C)O)C(=O)N1)[C@@H](C)O)C(=O)N1CCC[C@H]1C(=O)N[C@@H](CO)C(=O)N[C@@H](CO)C(=O)N[C@H](C(=O)N1CCC[C@H]1C(=O)N[C@H](C(=O)NCC(=O)N[C@@H](CO)C(=O)N[C@@H](CC(N)=O)C(=O)N[C@H](C(=O)N[C@@H](Cc1ccc(O)cc1)C(N)=O)[C@@H](C)O)C(C)C)[C@@H](C)O
notes: Derivative of human amylin; also called compound 31
B4: N^α1-[(4S)-4-carboxy-4-(19-carboxynonadecanoylamino)butanoyl]-[Glu14,Arg17,Pro21,Pro27,His35]-h-amylin (peptide)
peptide: {C20 diacid-γGlu}-KCNTATCATQRLAEFLRHSSPNFGAIPSSTNVGSHTY-NH2
modifications: disulfide 2-7
SMILES: CC[C@H](C)[C@H](NC(=O)[C@H](C)NC(=O)CNC(=O)[C@H](Cc1ccccc1)NC(=O)[C@H](CC(N)=O)NC(=O)[C@@H]1CCCN1C(=O)[C@H](CO)NC(=O)[C@H](CO)NC(=O)[C@H](Cc1c[nH]cn1)NC(=O)[C@H](CCCNC(=N)N)NC(=O)[C@H](CC(C)C)NC(=O)[C@H](Cc1ccccc1)NC(=O)[C@H](CCC(=O)O)NC(=O)[C@H](C)NC(=O)[C@H](CC(C)C)NC(=O)[C@H](CCCNC(=N)N)NC(=O)[C@H](CCC(N)=O)NC(=O)[C@@H](NC(=O)[C@H](C)NC(=O)[C@@H]1CSSC[C@H](NC(=O)[C@H](CCCCN)NC(=O)CC[C@H](NC(=O)CCCCCCCCCCCCCCCCCCC(=O)O)C(=O)O)C(=O)N[C@@H](CC(N)=O)C(=O)N[C@@H]([C@@H](C)O)C(=O)N[C@@H](C)C(=O)N[C@@H]([C@@H](C)O)C(=O)N1)[C@@H](C)O)C(=O)N1CCC[C@H]1C(=O)N[C@@H](CO)C(=O)N[C@@H](CO)C(=O)N[C@H](C(=O)N[C@@H](CC(N)=O)C(=O)N[C@H](C(=O)NCC(=O)N[C@@H](CO)C(=O)N[C@@H](Cc1c[nH]cn1)C(=O)N[C@H](C(=O)N[C@@H](Cc1ccc(O)cc1)C(N)=O)[C@@H](C)O)C(C)C)[C@@H](C)O
notes: Derivative of human amylin; also called compound 18

The first assay has as its target T1, rat calcitonin receptor (rat, UniProt P32214 25-516).
T1 construct: whole, on cells; Used as membranes prepared from the transfected cells; also called rCTR; rat calcitonin (a) receptor
T1 sequence (looked up): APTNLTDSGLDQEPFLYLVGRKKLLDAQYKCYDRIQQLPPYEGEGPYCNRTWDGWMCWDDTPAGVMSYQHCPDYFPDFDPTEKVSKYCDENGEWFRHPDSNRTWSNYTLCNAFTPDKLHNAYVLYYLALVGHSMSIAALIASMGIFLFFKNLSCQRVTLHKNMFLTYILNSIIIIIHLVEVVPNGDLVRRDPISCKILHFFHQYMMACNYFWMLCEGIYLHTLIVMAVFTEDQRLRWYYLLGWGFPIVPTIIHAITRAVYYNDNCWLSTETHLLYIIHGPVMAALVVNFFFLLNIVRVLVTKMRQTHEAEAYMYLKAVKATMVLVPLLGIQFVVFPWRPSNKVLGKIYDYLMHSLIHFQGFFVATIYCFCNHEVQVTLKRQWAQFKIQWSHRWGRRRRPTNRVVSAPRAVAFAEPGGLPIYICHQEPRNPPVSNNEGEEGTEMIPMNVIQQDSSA
In words: ratio IC50 rat calcitonin receptor / IC50 rat amylin receptor (Assays VIII and VI).
Regarding B1, the “Ratio rCT/rAmylin binding” value is 35.9.
Same read-out and setting: the figure for B2 is 14.3; for B3 it is 42.8; for B4 it is 27.3.

The target in a further assay is T2, human calcitonin receptor (human, UniProt P30988 25-474).
T2 construct: whole, on cells; Used as membranes prepared from the transfected cells (Assay VII); also called hCTR; hCT
T2 sequence (looked up): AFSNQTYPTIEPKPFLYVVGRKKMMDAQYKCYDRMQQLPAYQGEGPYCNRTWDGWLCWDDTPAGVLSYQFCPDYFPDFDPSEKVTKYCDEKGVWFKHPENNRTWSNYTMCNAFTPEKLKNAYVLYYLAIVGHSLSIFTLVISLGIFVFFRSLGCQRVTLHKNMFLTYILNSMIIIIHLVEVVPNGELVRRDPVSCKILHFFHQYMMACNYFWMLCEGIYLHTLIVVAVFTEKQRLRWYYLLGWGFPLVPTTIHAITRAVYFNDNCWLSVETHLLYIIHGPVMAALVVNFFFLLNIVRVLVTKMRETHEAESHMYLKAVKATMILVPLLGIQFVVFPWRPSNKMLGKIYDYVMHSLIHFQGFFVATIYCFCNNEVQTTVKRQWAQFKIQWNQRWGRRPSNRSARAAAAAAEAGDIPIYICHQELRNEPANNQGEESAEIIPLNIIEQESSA
In words: ratio IC50 human calcitonin receptor / IC50 human amylin receptor (Assays VII and V). An outline of the steps:
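Scintillation proximity competition binding on cell membranes at 35 ng/μL with SPA beads, in 50 mM Hepes pH 7.4, 1 mM CaCl2, 5 mM MgCl₂, 0.1% OA, 0.02% Tween20. Incubated 120 min at 25° C with shaking. IC₅₀ from one-site competition fit.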
For B1, the “Ratio hCT/hAmylin binding” value was determined as 12.5.
Same read-out and setting: the figure for B2 is 2.3.
On the same count and under the same terms, the figure for B3 is 16.
On to B4, for which the “Ratio hCT/hAmylin binding” value was found to be 9.2.

A further assay has as its target T1, rat calcitonin receptor. In words: SPA competition with 125I-calcitonin, membranes of BHK cells with rat calcitonin receptor (Assay VIII).
Usually IC50 stands for the concentration that inhibits the measured activity by half. As to B1, the IC50 turned out to be 97.2 nM.
The same measure, in the same setting: the figure for B2 is 7.35 nM; for B3 it is 26.5 nM; for B4 it is 13 nM.

The next assay deals with T3, rat amylin receptor (rat calcitonin receptor + rat RAMP 3) (rat, UniProt P32214 25-516; Q9JJ73 23-147).
T3 construct: whole, on cells; Used as membranes prepared from the transfected cells; also called rAmylin-R; rat amylin 3(a) receptor
T3 sequence (looked up) 1: T1 sequence (looked up)
T3 sequence (looked up) 2: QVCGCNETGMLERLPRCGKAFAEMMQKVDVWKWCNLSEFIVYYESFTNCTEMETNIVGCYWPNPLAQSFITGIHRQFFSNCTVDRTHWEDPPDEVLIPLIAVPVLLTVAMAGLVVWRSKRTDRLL
In words: SPA competition with 125I-rat amylin, membranes of BHK cells with rat calcitonin receptor + rat RAMP3 (Assay VI).
In the case of B1, the IC50 was determined as 2.71 nM.
On the same count and under the same terms, the figure for B2 is 0.514 nM; for B3 it is 0.619 nM; for B4 it is 0.476 nM.

The record behind these values is patent publication US20140087995A1 (published 2014).
